The record followed here is article PMC6599559 (Journal of molecular biology, 2019).

In general, Kd refers to a measure of binding affinity in units of concentration. A higher Kd goes with lower affinity.

The target in the test is eukaryotic elongation factor 2 (eEF-2) from yeast (yeast (commercial yeast cake), UniProt P32324 1-842). Briefly: ITC. (Isothermal titration calorimetry measures the heat released or taken up as one component is titrated into another.)
Sequence of eukaryotic elongation factor 2 (eEF-2) from yeast (P32324 whole entry): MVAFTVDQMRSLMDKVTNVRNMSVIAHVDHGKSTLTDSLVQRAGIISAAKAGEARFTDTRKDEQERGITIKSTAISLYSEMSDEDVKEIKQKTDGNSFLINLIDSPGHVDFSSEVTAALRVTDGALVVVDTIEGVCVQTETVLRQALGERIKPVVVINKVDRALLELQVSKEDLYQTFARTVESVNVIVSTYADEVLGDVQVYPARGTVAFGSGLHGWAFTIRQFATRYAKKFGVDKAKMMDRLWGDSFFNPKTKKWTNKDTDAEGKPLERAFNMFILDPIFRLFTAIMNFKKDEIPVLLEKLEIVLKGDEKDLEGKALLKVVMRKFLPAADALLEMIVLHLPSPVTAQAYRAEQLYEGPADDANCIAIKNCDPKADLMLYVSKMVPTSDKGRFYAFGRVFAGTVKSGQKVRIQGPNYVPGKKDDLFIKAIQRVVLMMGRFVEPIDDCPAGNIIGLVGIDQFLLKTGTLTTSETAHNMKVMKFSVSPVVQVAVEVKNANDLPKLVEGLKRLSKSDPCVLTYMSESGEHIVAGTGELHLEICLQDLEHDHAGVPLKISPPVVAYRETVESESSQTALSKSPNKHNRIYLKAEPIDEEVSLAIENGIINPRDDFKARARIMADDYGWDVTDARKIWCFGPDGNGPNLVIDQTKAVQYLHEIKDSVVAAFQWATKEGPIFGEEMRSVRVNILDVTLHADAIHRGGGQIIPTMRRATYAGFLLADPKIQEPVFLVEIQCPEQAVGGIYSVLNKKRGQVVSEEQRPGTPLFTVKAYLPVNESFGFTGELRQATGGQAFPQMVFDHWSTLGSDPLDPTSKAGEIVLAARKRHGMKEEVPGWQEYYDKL

B1: eEF-2K_(562–725), C-terminal fragment of human eukaryotic elongation factor 2 kinase (residues G562-E725) (domain or fragment)
chain: SHMGELEAIVGLGLMYSQLPHHILADVSLKETEENKTKGFDYLLKAAEAGDRQSMILVARAFDSGQNLSPDRCQDWLEALHWYNTALEMTDCDEGGEYDGMQDEPRYMMLAREAEMLFTGGYGLEKDPQRSGDLYTQAAEAAMEAMKGRLANQYYQKAEEAWAQMEE
Turning to B1, the dissociation constant Kd lay in the range of 4.2 to 8.9 µM.

B2: eEF-2K_(592–725), C-terminal fragment of human eukaryotic elongation factor 2 kinase (residues E592-E725) (domain or fragment, UniProt O00418 592-725, looked up)
chain: ENKTKGFDYLLKAAEAGDRQSMILVARAFDSGQNLSPDRCQDWLEALHWYNTALEMTDCDEGGEYDGMQDEPRYMMLAREAEMLFTGGYGLEKDPQRSGDLYTQAAEAAMEAMKGRLANQYYQKAEEAWAQMEE
The molecule B2 registered a Kd of 15.4 to 19 µM.
